Measured values taken from patent US20180305449A1 (ONCOMED PHARMACEUTICALS, published 2018).
Numbering of substitutions follows the chain as printed. Read-outs that look alike come from different tables or passages of the source.

T1: Recombinant mouse VEGF165 (mouse, UniProt Q00731-2 27-190)
T1 construct: also called mVEGF
T1 sequence (looked up): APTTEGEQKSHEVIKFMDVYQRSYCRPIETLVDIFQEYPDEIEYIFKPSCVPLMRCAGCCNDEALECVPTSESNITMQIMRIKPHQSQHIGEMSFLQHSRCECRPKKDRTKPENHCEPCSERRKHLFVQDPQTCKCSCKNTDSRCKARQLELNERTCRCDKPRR

B1: anti-VEGF/anti-DLL4 bispecific antibody 219R45-MB-21R83 (bispecific antibody, human IgG2)
heavy 1: QVQLVQSGAEVKKPGASVKVSCKASGYTFTNYWMHWVRQAPGQGLEWMGDINPSNGRTSYKEKFKRRVTLSVDKSSSTAYMELSSLRSEDTAVYFCTIHYDDKYYPLMDYWGQGTLVTVSSASTKGPSVFPLAPCSRSTSESTAALGCLVKDYFPEPVTVSWNSGALTSGVHTFPAVLQSSGLYSLSSVVTVPSSNFGTQTYTCNVDHKPSNTKVDKTVERKCCVECPPCPAPPVAGPSVFLFPPKPKDTLMISRTPEVTCVVVDVSHEDPEVQFNWYVDGVEVHNAKTKPREEQFNSTFRVVSVLTVVHQDWLNGKEYKCKVSNKGLPAPIEKTISKTKGQPREPQVYTLPPSREKMTKNQVSLTCLVKGFYPSDIAVEWESNGQPENNYKTTPPMLKSDGSFFLYSKLTVDKSRWQQGNVFSCSVMHEALHNHYTQKSLSLSPGK
heavy 2: QVQLVQSGAEVKKPGASVKISCKASGYSFTAYYIHWVKQAPGQGLEWIGYISNYNRATNYNQKFKGRVTFTTDTSTSTAYMELRSLRSDDTAVYYCARDYDYDVGMDYWGQGTLVTVSSASTKGPSVFPLAPCSRSTSESTAALGCLVKDYFPEPVTVSWNSGALTSGVHTFPAVLQSSGLYSLSSVVTVPSSNFGTQTYTCNVDHKPSNTKVDKTVERKCCVECPPCPAPPVAGPSVFLFPPKPKDTLMISRTPEVTCVVVDVSHEDPEVQFNWYVDGVEVHNAKTKPREEQFNSTFRVVSVLTVVHQDWLNGKEYKCKVSNKGLPAPIEKTISKTKGQPREPQVYTLPPSREEMTKNQVSLTCLVEGFYPSDIAVEWESNGQPENNYKTTPPMLDSDGSFFLYSELTVDKSRWQQGNVFSCSVMHEALHNHYTQKSLSLSPGK
light: DIVMTQSPDSLAVSLGERATISCRASESVDNYGISFMKWFQQKPGQPPKLLIYAASNQGSGVPDRFSGSGSGTDFTLTISSLQAEDVAVYYCQQSKEVPWTFGGGTKVEIKRTVAAPSVIFPPSDEQLKSGTASVVCLLNNFYPREAKVQWKVDNALQSGNSQESVTEQDSKDSTYSLSSTLTLSKADYEKHKVYACEVTHQGLSSPVTKSFNRGEC
notes: Monovalent/bispecific IgG2 heterodimer with charge-modified CH3 domains and two identical light chains
B2: anti-VEGF/anti-DLL4 bispecific antibody 219R45-MB-21R75 (bispecific antibody, human IgG2)
heavy 1: B1 heavy 1
heavy 2: B1 heavy 2 with S52A, N53G, N55K, R56D
light: B1 light
notes: as for B1
B3: anti-VEGF/anti-DLL4 bispecific antibody 219R45-MB-21M18 (bispecific antibody, human IgG2)
heavy 1: B1 heavy 1
heavy 2: B1 heavy 2 with N53S, R56G
light: B1 light
notes: Monovalent/bispecific (MB) IgG2 heterodimer with charge-modified CH3 domains and two identical light chains
B4: anti-DLL4 antibody 21M18 (parental, IgG format) (antibody, V domains shown)
VH: QVQLVQSGAEVKKPGASVKISCKASGYSFTAYYIHWVKQAPGQGLEWIGYISSYNGATNYNQKFKGRVTFTTDTSTSTAYMELRSLRSDDTAVYYCARDYDYDVGMDYWGQGTLVTVSS
VL: DIVMTQSPDSLAVSLGERATISCRASESVDNYGISFMKWFQQKPGQPPKLLIYAASNQGSGVPDRFSGSGSGTDFTLTISSLQAEDVAVYYCQQSKEVPWTFGGGTKVEIK
notes: Tested in IgG format; also called anti-hDLL4 antibody 21M18
B5: anti-VEGF antibody 219R45 (parental, IgG format) (antibody, V domains shown)
VH: QVQLVQSGAEVKKPGASVKVSCKASGYTFTNYWMHWVRQAPGQGLEWMGDINPSNGRTSYKEKFKRRVTLSVDKSSSTAYMELSSLRSEDTAVYFCTIHYDDKYYPLMDYWGQGTLVTVSS
VL: DIVMTQSPDSLAVSLGERATISCRASESVDNYGISFMKWFQQKPGQPPKLLIYAASNQGSGVPDRFSGSGSGTDFTLTISSLQAEDVAVYYCQQSKEVPWTFGGGTKVEIKR
notes: Tested as the bivalent parental antibody in IgG format; also called parental anti-VEGF antibody 219R45
B6: anti-DLL4 antibody 21R79 (parental, IgG format) (antibody, V domains shown)
VH: B4 VH with S52A, S53N, G56R
VL: B5 VL
notes: Tested as the parental antibody in IgG format

Assays:
biotin-DLL4-hFc [1] = target: T2, biotin-DLL4-hFc (UniProt Q9NR61 27-522, limits assumed, biotinylated (site not stated)); assay: Bispecific bridging ELISA: antibody pre-incubated with biotin-DLL4-hFc, captured on VEGF (ATGEN)-coated plate, streptavidin-HRP; potency relative to a reference anti-VEGF/anti-DLL4 bispecific antibody
T2 construct: not shown: human Fc (hFc)
Method: (§1) VEGF (ATGEN, South Korea) was coated onto Nunc maxisorb plates at 2 ug/ml (100 μl/well) and incubated overnight at 2-8° C. Bispecific antibodies 219R45-MB-21M18, 219R45-MB-21R79, 219R45-MB-21R75, and 219R45-MB-21R83 were diluted in blocking buffer (lx PBS, 0.1% gelatin, 0.1% Polysorbate-20, pH 7.4) containing 2 μg/ml biotin-DLL4-hFc. The antibodies were serially diluted 3-fold from 500 ng/ml to 0.008 ng/ml. The antibody samples were incubated for 2 hours in blocking buffer containing the biotin-DLL4-hFc. After incubation, the antibody samples were transferred to the VEGF-coated assay plate (100 ul/well) and incubated for 2 hours. Streptavidin-HRP (Jackson ImmunoResearch, West Grove, Pa.) was added to each well and incubated for 1 hr. TMB substrate was added to the wells with a 10 minute color development and the reaction was stopped with 2M sulfuric acid. Absorbance was read at 450-650 nm and the data analyzed using the 4-parameter fit within the Softmax Pro analysis program (Molecular Devices, Sunnyvale, Calif.).

biotin-DLL4-hFc [2] = target: T2, biotin-DLL4-hFc; assay: bispecific sandwich ELISA: antibody pre-incubated with 2 ug/ml biotin-DLL4-hFc, captured on VEGF-coated plate, detected with streptavidin-HRP
Method: FIG. 7. Bispecific antibody ELISA. Bispecific antibodies 219R45-MB-21M18, 219R45-MB-21R79, 219R45-MB-21R75, and 219R45-MB-21R83 were diluted in blocking buffer (lx PBS, 0.1% gelatin, 0.1% Polysorbate-20, pH 7.4) containing 2 μg/ml biotin-DLL4-hFc. The antibodies were serially diluted 3-fold from 500 ng/ml to 0.008 ng/ml. The antibody samples were incubated for 2 hours in blocking buffer containing the biotin-DLL4-hFc. After incubation, the antibody samples were transferred to a VEGF-coated assay plate (100 ul/well) and incubated for 2 hours. Streptavidin-HRP was added to each well and incubated for 1 hr. TMB substrate was added to the wells with a 10 minute color development and the reaction was stopped with 2M sulfuric acid. Absorbance was read at 450-650 nm and the data analyzed using the 4-parameter fit within the Softmax Pro analysis program.
as §1

[3] = target: T3, Recombinant human DLL4-Fc (human, UniProt Q9NR61 27-522, limits assumed); assay: SPR (Biacore 2000), human DLL4-Fc amine-coupled on CM5 chip, antibody as analyte
T3 construct: also called hDLL4; hDLL4-Fc; not shown: Fc portion
Method: (§2) The KDs of parental antibodies anti-VEGF 219R45 (IgG format), anti-DLL4 21R79 (IgG format), anti-DLL4 21M18 (IgG format) and bispecific antibodies 219R45-MB-21M18 and 219R45-MB-21R79 were determined using a Biacore 2000 system from Biacore LifeSciences (GE Healthcare). Recombinant human DLL4-Fc or mouse DLL4-Fc proteins were immobilized on CM5 carboxyl chips using standard amine-based chemistry (NHS/EDC) and blocked with ethanolamine Recombinant human VEGF₁₆₅ or mouse VEGF₁₆₅ were biotinylated and immobilized on streptavidin chips. The antibodies were serially diluted 2-fold from 100 nM to 0.78 nM in HBS-P (0.01M HEPES pH7.4, 0.15M NaCl, 0.005% v/v Polysorbate 20). For each antibody, all 8 dilutions were sequentially injected over a specific chip. Kinetic data were collected over time and were fit using the simultaneous global fit equation to yield affinity constants (KD values) for each bispecific antibody.
Several additional anti-DLL4 antibodies were identified that had binding affinities intermediate to the KDs of 21M18 and 21R79. Two of these anti-DLL4 antibodies were used to produce anti-VEGF/anti-DLL4 bispecific antibodies 219R45-MB-21R75 and 219R45-MB-21R83. Using the Biacore 2000 system as described above, the KDs of the bispecific antibodies 219R45-MB-21R75 and 219R45-MB-21R83 to human DLL4 were determined.

[4] = target: T3, Recombinant human DLL4-Fc; assay: as above; remark: listed apart in the source
Method: as §2

[5] = target: T1, Recombinant mouse VEGF165; assay: SPR (Biacore 2000), biotinylated mouse VEGF165 on streptavidin chip, antibody as analyte
Method: as §2

[6] = target: T4, Recombinant human VEGF165 (human, UniProt P15692-4 27-191); assay: SPR (Biacore 2000), biotinylated human VEGF165 on streptavidin chip, antibody as analyte
T4 construct: also called hVEGF; hVEGF165
Method: as §2

[7] = target: T4, Recombinant human VEGF165; assay: HTRF bridging assay: Europium cryptate-labeled hVEGF165 and d2-labeled hDLL4-Fc; signal needs both bound at once
Method: (§3) To characterize the binding capabilities of certain antibodies and/or antibody mixtures to both VEGF and DLL4, homogeneous time resolved fluorescence (HTRF) assays were performed. Antibodies tested were anti-VEGF/anti-DLL4 bispecific antibodies 219R45-MB-21M18 and 219R45-MB-21R79, parental antibodies 219R45 (anti-VEGF), 21M18 (anti-DLL4), 21R79 (anti-DLL4), a combination of 219R45 and 21M18, or a combination of 219R45 and 21R79. The antibodies or antibody mixtures were serially diluted 2-fold from 3000 nM to 2.9 nM in binding buffer (1×PBS, 0.1% gelatin, 0.1% Polysorbate 20, 400 mM potassium fluoride) and placed in a white 96-well plate. An equal volume of solution containing 4 μg/ml of d2-labeled hDLL4-Fc and 21.4 ng/ml Europium crypate-labeled hVEGF₁₆₅ was added to each well for a final volume of 100 μl (final concentrations of acceptor and donor fluorophores were 2 μg/ml and 10.7 ng/ml, respectively). The assay plates were incubated for 2 hours to overnight and read on a SpectraMax M5e Microplate reader (Molecular Devices, Sunnyvale Calif.) at an excitation wavelength of 314 nm.

[8] = target: T3, Recombinant human DLL4-Fc; assay: as above
Method: as §3

T2 sequence (Q9NR61 27-522 limits assumed): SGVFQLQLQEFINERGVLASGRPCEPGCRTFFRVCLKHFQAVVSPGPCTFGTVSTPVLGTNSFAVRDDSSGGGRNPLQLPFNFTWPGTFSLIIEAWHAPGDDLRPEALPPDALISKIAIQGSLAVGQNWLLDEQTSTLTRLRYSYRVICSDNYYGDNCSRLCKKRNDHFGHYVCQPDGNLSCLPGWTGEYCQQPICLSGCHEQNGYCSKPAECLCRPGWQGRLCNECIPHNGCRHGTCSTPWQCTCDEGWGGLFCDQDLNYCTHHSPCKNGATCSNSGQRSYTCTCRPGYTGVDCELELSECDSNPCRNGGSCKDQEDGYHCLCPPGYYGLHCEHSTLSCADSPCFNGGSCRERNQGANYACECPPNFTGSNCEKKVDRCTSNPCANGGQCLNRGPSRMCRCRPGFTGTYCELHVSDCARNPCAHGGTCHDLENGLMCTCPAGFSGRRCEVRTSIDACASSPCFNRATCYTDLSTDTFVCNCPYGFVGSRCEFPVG
T3 sequence (Q9NR61 27-522 limits assumed): as above

Binder	Relative Potency (%) (biotin-DLL4-hFc [1])	EC50 (read off the curve) (biotin-DLL4-hFc [2])	Kd [3]	Kd [4]	Kd [5]	Kd [6]	binding result [5]	binding result [7]	binding result [8]
B1	222%	~1 ng/mL	1.3 nM						
B2	422%	~0.8 ng/mL	5.1 nM						
B3	67%	~5 ng/mL	16 nM	16 nM	25.5 nM	0.36 nM			
B4				< 0.1 nM			no binding (tested: 100 nM (highest concentration injected))	no binding	
B5					22.9 nM	0.67 nM			no binding
B6				< 0.1 nM			no binding (tested: 100 nM (highest concentration injected))	no binding	
